Test results published in the DeepSol protein solubility set.

assay: soluble on expression in E. coli; label from the status in PepcDB or PDB records

Sequence | soluble on expression in E. coli
AQSVPYGISQIKAPALHSQGYTGSNVKVAVIDSGIDSSHPDLNVRGGASFVPSETNPYQDGSSHGTHVAGTIAALNNSIGVLGVSPSASLYAVKVLDSTGSGQYSWIINGIEWAISNNMDVINMSLGGPTGSTALKTVVDKAVSSGIVVAAAAGNEGSSGSTSTVGYPAKYPSTIAVGAVNSSNQRASFSSAGSELDVMAPGVSIQSTLPGGTYGAYNGTCMATPHVAGAAALILSKHPTWTNAQVRDRLESTATYLGNSFYYGKGLINVQAAAQ | soluble
ARYLDVTSRRDPEHSHRTYYVTGQVFFASADRFTASFDLREKVETLAIDLREAHFWDITAVAALDKVVLKLRRAGISVDVVGMNRATATLVDRFGVHDKPDGIDSLMGH | not soluble
ASIPEGTDKNAPLTSIPGYIPNMLSPPKGDAFAARNQFALAIDFEHQPPFFDVTETHKAATWLLHPQAPKVEMPADVKEKIAITRKALAIKMPSQPVKQPKSNGNKKTKTKSAR | soluble
ASMGKSAVIFVERATPATLTELKDALSNSILSVRDPWSIDFRTYRCSIKNLPADVSKLMYSITFHHHGRQTVLIKDNSAMVTTAAAADIPPALVFNGSSTGVPESIDTILSSKLSNIWMQRQLIKGDAGETLILDGLTVRLVNLFSSTGFKGLLIELQADEAGEFETKIAGIEGHLAEIRAKEYKTSSDSLGPDTSNEICDLAYQYVRALEL | soluble
ASPIGEGTFDDGPEGWVAYGTDGPLDTSTGALCVAVPAGSAQYGVGVVLNGVAIEEGTTYTLRYTATASTDVTVRALVGQNGAPYGTVLDTSPALTSEPRQVTETFTASATYPATPAADDPEGQIAFQLGGFSADAWTLCLDDVALDSEVEL | soluble
ATDATSLATDKDKLSYSIGADLGKNFKNQGIDVNPEAMAKGMQDAMSGAQLALTEQQMKDVLNKFQKDLMAKRTAEFNKKADENKVKGEAFLTENKNKPGVVVLPSGLQYKVINSGNGVKPGKSDTVTVEYTGRLIDGTVFDSTEKTGKPATFQVSQVIPGWTEALQLMPAGSTWEIYVPSGLAYGPRSVGGPIGPNETLIFKIHLISVKKSS | soluble
ATLHSFVLVDNGGTGNVTVVPVSNANGVAEWLSNNSRSQAYRVTASYRASGADKRKYTIKLEVPKIVTQVVNGVELPVSAWKAYASIDLTIPIFAATDDVTVISKSLTGLFKVGNPIAEAISSQSGFYA | soluble
ATPAAQASDDRYEVTQQRNPDAACLDCHKPDTEGMHGKHASVINPNNKLPVTCTNCHGQPSPQHREGVKDVMRFNEPMYKVGEQNSVCMSCHLPEQLQKAFWPHDVHVTKVACASCHSLHPQQDTMQTLSDKGRIKICVDCHSDQRTNPNFNPASVPLLKEQP | soluble
AVKGLGKPDQVYDGSKIRVGIIHARWNRVIIDALVKGAIERMASLGVEENNIIIETVPGSYELPWGTKRFVDRQAKLGKPLDVVIPIGVLIKGSTMHFEYISDSTTHALMNLQEKVDMPVIFGLLTCMTEEQALARAGIDEAHSMHNHGEDWGAAAVEMAVKFGKNAF | soluble
AYKVTLKTPDGDITFDVEPGERLIDIGSEKADLPLSCQAGACSTCLGKIVSGTVDQSEGSFLDDEQIEQGYVLTCIAIPESDVVIETHKEDEL | soluble
CLAEGTRIFDPVTGTTHRIEDVVDGRKPIHVVAAAKDGTLHARPVVSWFDQGTRDVIGLRIAGGAILWATPDHKVLTEYGWRAAGELRKGDRVAQPRRFDGFGDSAPIPARVQALADALDDKFLHDMLAEELRYSVIREVLPTRRARTFDLEVEELHTLVAEGVVVHN | soluble
CNFDCLYCELEGKKATDSMGEVAKVEEILEELREALPRYKPDVITVTANGEPTLYPALLPLIRGINALPHSAKTLILSNGSRFGEPEVQEALLEFDMVKFSLDAVSARAFKRVDRAHDSLSISQIIQGIKGFRSRYRGDLIAEVLFVKGVNDSPEEARAIARVLKEIAPSRVDLSTIDRPPAYKVEGVSPQKLEE | not soluble
CRELLPVEARQKTLLIDADLTLDEITPKFLNVLEQFAPFGFSNREPLFTATGCRLVGKPKLLRERHVKFTVRGEQSSSFEVIAFDRPDIFNDLEAHGSASALQLVCIPERNQWNGREYVQLRVMDMAIG | not soluble
CSSPQHASTVPGTTPSIWTGSPAPSGLSGHDEESPGAQSLTSTLTAPDGTKVATAKFEFANGYATVTIATTGVGKLTPGFHGLHIHQVGKCEPNSVAPTGGAPGNFLSAGGHYHVPGHTGTPASGDLASLQVRGDGSAMLVTTTDAFTMDDLLSGAKTAIIIHAGADNFANIPPERYVQVNGTPGPDETTLTTGDAGKRVACGVIGSG | soluble
CYVDTNNDGAYEGDELHMGSLTVKAYLLGKEEAAREIRRFSFCFSPEPEAEAAAGPGPSERLLSRVAVLFPALRPGGFQAHYRAERGDLVAFSSDEELTMAMSYVKDDIFRIYIKEK | soluble
DAHSLWYNFTIIHLPRHGQQWCEVQSQVDQKNFLSYDCGSDKVLSMGHLEEQLYATDAWGKQLEMLREVGQRLRLELADTELEDFTPSGPLTLQVRMSCECEADGYIRGSWQFSFDGRKFLLFDSNNRKWTVVHAGARRMKEKWEKDSGLTTFFKMVSMRDCKSWLRDFLMHRKKRLE | soluble
DCLLPIVAAPMAGGPTTVALAQAVSGVGGFPFLAGGYKSVEALATEIAVLRASGGNFGVNLFVPSPDMVDAEAFRIYAAKLQSEALPYGLRLDPLPVMGDDDGWPDKLALLLNDPVPVVSFTFGLPAVRDIAALRCAGSRVLASVTLPAEAQAAMEAGVDGLVVQGPDAGGHSATYDPGRPFTPLKTVSLVRRVCAVSSLPVIAAGGVDGPVMVRALLQAGAAAVAIGTLLLRTKESGATQVHKDALANPAYTETVITHAFTGRPARTLRNGFVNRYHASAPLGYPAIHHLTRPLRQAAASAGDADVLHLWAGTGYRQAMDGSAVDVIQ | not soluble
DDLIEGYLSSEEYYHEESARYIQKFSKYVSENELSTSDRKAFGEWVKKENYINLTIFKDQELQYDSIYSESDYGKEKLTQYAQNHSHPVKFSDGEGRVIIDGFYSSRYYD | not soluble
DEYLENLTDTPKHSKAYPIIKFEFTGRSVDAPLLSQASKKFGVELSILTSQIDYAGGVKFGYTIAEVEGDEDAITQTKVYLMENNVRVEVLGYVQ | not soluble
DFFRSAIDQAPSFMAVLDGRDHIFRIVNQAYHQLVGRRDLLNRTVREALPELDGQGFFELLDEVFLTGLAFTRLAAPVLLRRGPEIERSFVDFIMCPLRGPDGQVRGVFVEGHDVT | not soluble
DGFKIVQFSDAHLSDYFTLEDLKTVILTINESKPDLIVFTGDIIDNPDTYQHHQAVIPLLRKLNAPFGKLCIYGNHDHGGYGTAVYKSLMTAGGFTVYRNGYQTLSLADGSKIEIASLDDFNAGKPRFMQGTLSRLSDRLFSILLVHEPDAALKTTDYPVNLQLSGHTHGGQIQLPFYGPIITPPYGKVYTEGMYQTGSTHIYVNRG | not soluble
DIQMNQSPSSLSASLGDTITITCHASQNINVWLNWFQQKPGSIPKLLIYMASNLHTGVPSRFSGSGSGTGFTLTISSLQPEDIATYYCQQGQSFPLTFGGGTKLEIKRADAAPTVSIFPPSSEQLTSGGASVVCFLNNFYPKDINVKWKIDGSERQNGVLNSWTDQDSKDSTYSMSSTLTLTKDEYERHNSYTCEATHKTSTSPIVKSFNRN | soluble
DITGIPTGFNELDKMTAGFQRNDLIIVAARPSVGKTAFALNIAQNVATKTDENVAIFSLEMGAEQLVMRMLCAEGNINAQNLRTGALTSDDWQKLTIAMGTLSNSGIYIDDTPGVRVNEIRSKCRRLKQETGLGMIVIDYLQLIAGSGRGGENRQQEVSEISRSLKALARELEVPVIALSQLSRSVEQRQDKRPMMSDI | not soluble
DKEWNEKELQKLHCAFASLPKHKPGFWSEVAAAVGSRSPEECQRKYMENPRGKGSQKHVT | soluble
DKVSLKLPKSNGELFEFKWLDHKIAYIALNGFHDKKILQDFNDVYDEIKQSRGLIIDLRFNGGGNSSIAAEILSHFTNKGLEGSIWKNRKHIAAFKAWGNYSGKYKIYAQDNAWESGAMESLKAKENSHIVPTYVLIGRNTASAAEDFLIYADKLKHFTTLGENTYGSTGQPIFFDLPGGGSFRICTKRDTYPDGREFVGYGITPQVIIDRMPEHLRSEKDIVLYSAIKKLKEKI | not soluble
